Key:
[1] = 31P-NMR phase behaviour of equimolar DOPE:cholesterol mixtures with bilayer stabilizing component; format: physicochemical; details: DOPE:cholesterol:BSC 1:1:0.25, 0 to 60° C.
Description: Lipid components were mixed in 1–2 ml of benzene:methanol (95:5, v/v) and then lyophilized for a minimum of 5 hours at a pressure of <60 millitorr using a Virtis lyophilizer equipped with a liquid N2 trap. Multilamellar vesicles (MLVs) were prepared by hydrating the dry lipid mixtures in 150 mM NaCl, buffered with 10 mM Hepes-NaOH, pH 7.4 (Hepes-buffered saline, HBS). Mixtures were vortexed to assist hydration. To produce large unilamellar vesicles (LUVs), MLVs were first frozen in liquid nitrogen and then thawed at 30° C. five times. LUVs were produced by extrusion of the frozen and thawed MLVs ten times through 2 stacked polycarbonate filters of 100 nm pore size at 30° C. and pressures of 200–500 psi (Hope, et al., Biochim. Biophys. Acta, 812:55–65 (1985)).
^31P-NMR spectra were obtained using a temperature controlled Bruker MSL200 spectrometer operating at 81 MHz. Free induction decays were accumulated for 2000 transients using a 4 μs, 90° pulse, 1 sec. interpulse delay, 20 KHz sweep width and Waltz decoupling. A 50 Hz line broadening was applied to the data prior to Fourier transformation. Samples were allowed to equilibrate at the indicated temperature for 30 minutes prior to data accumulation. Lipid concentrations of 30–70 mM were used.

[2] = Lipid mixing (FRET) assay, NaCl-induced fusion of DOPE:DODAC liposomes; details: DOPE:DODAC:PEG-lipid 83:15:2, 300 mM NaCl, POPC sink, 37° C.
Description: FIG. 16 illustrates the inhibition of fusion of DOPE:DODAC liposomes by PEG-PE. Liposomes were prepared from either DOPE:DODAC (85:15) or DOPE:DODAC:DMPE-PEG2000 (83:15:2). Fusion was assayed as described under FIG. 1 using 300 mM NaCl.
FIG. 17 illustrates the recovery fusogenic activity after PEG removal. Liposomes were prepared from either DOPE:DODAC:ceramide(C8:0)-PEG2000, 83:15:2 or […], 38:45:15:2. Fusion was assayed as described under FIG. 2 except that at the indicated times a 30 fold excess (over donors) of liposomes composed of POPC or POPC:cholesterol (55:45) was added.
FIG. 18 illustrates the effect of the lipid anchor on the rate of PEG-lipid removal. […] At zero time a 13-fold excess (over labelled vesicles) of POPC liposomes was added and the fluorescence intensity was measured at the indicated times. At the end of the assay Triton X-100 (0.5% final) was added to eliminate energy transfer and the % fusion was calculated from the change in efficiency of energy transfer. Maximum fusion was calculated from a standard curve of energy transfer efficiency against the molar fraction of Rh-PE in the membrane assuming complete mixing of labelled and unlabelled liposomes.
Lipid mixing was measured by a modification of the fluorescence resonance energy transfer (FRET) assay of Struck, et al. (Biochemistry, 20:4093–4099 (1981)). […]

With “1-O-methyl-(poly(ethoxy)-O-succinyl-O-(egg)ceramide [egg ceramide-PEG2000]” the “phase preference by 31P-NMR” value [1] was “exclusively bilayer up to 60 °C” and the “time for 50% maximal fusion” value [2] was “over 20 hr”.

Source: US7205273B2, “Fusogenic liposomes” (The University of British Columbia, priority 1996, dated 2007)
